From patent US20260184814A1, “BROADLY NE[…] INFLUENZA NEURAMINIDASE” (priority 2022, published 2026)
Where two headings read alike, the source gives them in different places.

Tests used:
[1] = target: human FcγRIIIb (human) (UniProt O75015); experiment: MSD electrochemiluminescence binding assay; column IIIB
[2] = target: human FcγRIIb (human) (UniProt P31994); experiment: MSD electrochemiluminescence binding assay; column IIB
[3] = target: human FcγRIIb (human) (UniProt P31994)
[4] = target: human FcγRIIa (H131 allele) (human) (UniProt P12318)
Chain of human FcγRIIa (H131 allele) (human) (P12318 34-218 limits assumed): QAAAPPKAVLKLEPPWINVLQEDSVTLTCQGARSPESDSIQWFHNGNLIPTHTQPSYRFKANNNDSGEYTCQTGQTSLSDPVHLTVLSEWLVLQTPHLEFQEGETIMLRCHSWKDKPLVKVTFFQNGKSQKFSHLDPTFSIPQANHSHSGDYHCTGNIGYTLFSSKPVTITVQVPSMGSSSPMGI

[5] = target: human FcγRIIIa (V158 allele) (human) (UniProt P08637)
Chain of human FcγRIIIa (V158 allele) (human) (P08637 17-208 F176V limits assumed): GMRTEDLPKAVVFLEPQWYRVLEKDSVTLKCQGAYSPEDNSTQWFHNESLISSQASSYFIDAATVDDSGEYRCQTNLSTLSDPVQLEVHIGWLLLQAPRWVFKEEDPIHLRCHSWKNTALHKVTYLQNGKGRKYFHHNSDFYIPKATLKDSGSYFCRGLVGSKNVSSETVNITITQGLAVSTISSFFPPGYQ

[6] = target: human FcγRIIIa (F158 allele) (human) (UniProt P08637)
Chain of human FcγRIIIa (F158 allele) (human) (P08637 17-208 limits assumed): as the sequence (P08637 17-208 F176V limits assumed) above, with V160F counted along it

[7] = target: human FcγRIIIa (F158 allele) (human) (UniProt P08637); experiment: MSD electrochemiluminescence binding assay; column IIIA_F
[8] = target: human C1q (human) (UniProt P02745); experiment: MSD
Chain of human C1q (human) (P02745 23-245 limits assumed, chain 1 of 3): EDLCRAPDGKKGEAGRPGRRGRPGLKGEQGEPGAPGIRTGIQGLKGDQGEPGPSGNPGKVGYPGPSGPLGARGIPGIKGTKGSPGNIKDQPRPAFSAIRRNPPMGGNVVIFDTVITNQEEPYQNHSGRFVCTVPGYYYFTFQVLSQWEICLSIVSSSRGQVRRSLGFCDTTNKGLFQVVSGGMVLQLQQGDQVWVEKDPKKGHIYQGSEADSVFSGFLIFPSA
Chain of human C1q (human) (P02746 28-253 limits assumed, chain 2 of 3, further chain): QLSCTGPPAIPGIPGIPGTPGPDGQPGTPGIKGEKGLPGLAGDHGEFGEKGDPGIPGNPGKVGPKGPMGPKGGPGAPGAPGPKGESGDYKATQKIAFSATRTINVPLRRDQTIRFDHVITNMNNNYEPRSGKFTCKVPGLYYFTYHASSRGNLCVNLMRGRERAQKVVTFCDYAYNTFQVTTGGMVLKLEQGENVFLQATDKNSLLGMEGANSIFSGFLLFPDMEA
Chain of human C1q (human) (P02747 29-245 limits assumed, chain 3 of 3, further chain): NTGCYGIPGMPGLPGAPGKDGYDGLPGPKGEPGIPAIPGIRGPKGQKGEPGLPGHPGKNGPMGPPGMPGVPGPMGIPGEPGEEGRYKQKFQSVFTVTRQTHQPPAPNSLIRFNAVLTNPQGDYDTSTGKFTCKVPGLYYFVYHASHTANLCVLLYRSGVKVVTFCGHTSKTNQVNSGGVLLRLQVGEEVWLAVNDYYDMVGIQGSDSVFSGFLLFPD

[9] = target: human FcγRIIb (human) (UniProt P31994); experiment: MSD
[10] = target: human FcRn (human) (UniProt P55899); experiment: MSD
Chain of human FcRn (human) (P55899 24-297 limits assumed, chain 1 of 2): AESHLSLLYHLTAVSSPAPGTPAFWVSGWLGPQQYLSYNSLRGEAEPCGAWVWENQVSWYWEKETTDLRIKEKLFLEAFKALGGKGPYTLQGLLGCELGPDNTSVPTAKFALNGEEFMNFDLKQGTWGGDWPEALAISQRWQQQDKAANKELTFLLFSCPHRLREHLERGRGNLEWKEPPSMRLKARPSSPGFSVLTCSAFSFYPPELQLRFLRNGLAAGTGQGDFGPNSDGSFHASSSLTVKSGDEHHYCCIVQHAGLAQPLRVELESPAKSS
Chain of human FcRn (human) (chain, as listed by the source limits assumed, chain 2 of 2): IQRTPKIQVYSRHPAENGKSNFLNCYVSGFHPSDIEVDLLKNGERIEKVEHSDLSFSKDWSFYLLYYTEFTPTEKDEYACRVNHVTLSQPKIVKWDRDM

[11] = target: human FcγRIIa (R131 allele) (human) (UniProt P12318); experiment: MSD
Chain of human FcγRIIa (R131 allele) (human) (P12318 34-218 H167R limits assumed): as the sequence (P12318 34-218 limits assumed) above, with H134R counted along it

[12] = target: human FcγRIIa (H131 allele) (human) (UniProt P12318); experiment: MSD
[13] = target: human FcγRIIIa (V158 allele) (human) (UniProt P08637); experiment: MSD
[14] = target: human FcγRIIIb (human) (UniProt O75015); experiment: MSD
[15] = target: human FcγRIIIa (F158 allele) (human) (UniProt P08637); experiment: MSD
[16] = target: human C1q (human) (UniProt P02745); experiment: MSD [cont'd]
[17] = target: human FcRn (human) (UniProt P55899); experiment: MSD [cont'd]
[18] = target: human FcRn (human) (UniProt P55899); experiment: MSD electrochemiluminescence binding assay; column FcRn
[19] = target: human FcγRIIa (H131 allele) (human) (UniProt P12318); experiment: MSD electrochemiluminescence binding assay; column IIA_H
[20] = target: human FcγRIIIa (V158 allele) (human) (UniProt P08637); experiment: MSD electrochemiluminescence binding assay; column IIIA_V
[21] = target: human FcγRIIa (R131 allele) (human) (UniProt P12318); experiment: MSD electrochemiluminescence binding assay; column IIA_R
[22] = target: human C1q (human) (UniProt P02745); experiment: MSD [cont'd]; remark: listed apart in the source
[23] = target: human FcγRIIIa (F158 allele) (human) (UniProt P08637); experiment: MSD [cont'd]
[24] = target: human FcRn (human) (UniProt P55899); experiment: MSD, pH 6 [cont'd]
[25] = target: human FcγRIIb (human) (UniProt P31994); experiment: MSD [cont'd]
[26] = target: human FcγRIIa (R131 allele) (human) (UniProt P12318); experiment: MSD [cont'd]
[27] = target: human FcγRIIa (H131 allele) (human) (UniProt P12318); experiment: MSD [cont'd]
[28] = target: human FcγRIIIa (V158 allele) (human) (UniProt P08637); experiment: MSD [cont'd]
[29] = target: human FcγRIIIb (human) (UniProt O75015); experiment: MSD [cont'd]
[30] = target: human FcγRIIb (human) (UniProt P31994); remark: listed apart in the source
[31] = target: human FcγRIIa (H131 allele) (human) (UniProt P12318); remark: listed apart in the source
[32] = target: human FcγRIIIa (V158 allele) (human) (UniProt P08637); remark: listed apart in the source
[33] = target: human FcγRIIIa (F158 allele) (human) (UniProt P08637); remark: listed apart in the source
[34] = target: human FcγRIIIa (V158 allele) (human) (UniProt P08637); remark: listed apart in the source

Chain of human FcγRIIIb (human) (O75015 17-200 limits assumed): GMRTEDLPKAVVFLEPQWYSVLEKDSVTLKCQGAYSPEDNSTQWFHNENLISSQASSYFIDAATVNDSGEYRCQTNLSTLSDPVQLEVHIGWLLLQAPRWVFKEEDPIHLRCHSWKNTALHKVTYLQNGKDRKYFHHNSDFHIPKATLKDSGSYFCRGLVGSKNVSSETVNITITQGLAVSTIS
Chain of human FcγRIIb (human) (P31994 43-217 limits assumed): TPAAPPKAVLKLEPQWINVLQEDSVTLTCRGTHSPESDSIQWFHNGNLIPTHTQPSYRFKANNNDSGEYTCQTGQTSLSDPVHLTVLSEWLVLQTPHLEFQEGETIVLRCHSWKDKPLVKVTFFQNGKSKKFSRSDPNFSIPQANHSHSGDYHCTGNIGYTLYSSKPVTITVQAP

IgG1 antibody with Fc variant G236A_L328V_Q295E
fold-change in binding vs wild-type IgG1 [1]: 0.71
fold-change in binding vs wild-type IgG1 [2]: 0.81
FcγR reporter signaling, fold-change vs wt [cont'd] [3]: 0.66 fold
FcγR reporter signaling, fold-change vs wt [cont'd] [4]: 2.18 fold
FcγR reporter signaling, fold-change vs wt [cont'd] [5]: 0.03 fold
FcγR reporter signaling, fold-change vs wt [cont'd] [6]: 0.02 fold
fold-change in binding vs wild-type IgG1 [7]: 0.52
fold-change vs FY1 rIgG1m3 [8]: 0.07 fold
fold-change vs FY1 rIgG1m3 [9]: 0.9 fold
fold-change vs wt [9]: 0.86 fold
fold-change vs FY1 rIgG1m3 [10]: 1.1 fold
fold-change vs FY1 rIgG1m3 [11]: 10.8 fold
fold-change vs wt [11]: 10.8 fold
fold-change vs FY1 rIgG1m3 [12]: 7.8 fold
fold-change vs wt [12]: 7.8 fold
fold-change vs FY1 rIgG1m3 [13]: 0.4 fold
fold-change vs wt [13]: 0.36 fold
fold-change vs FY1 rIgG1m3 [14]: 0.7 fold
fold-change vs wt [14]: 0.7 fold
fold-change vs FY1 rIgG1m3 [15]: 0.5 fold
fold-change vs wt [15]: 0.52 fold
fold-change vs wt [16]: 0.07 fold
fold-change vs wt [17]: 1.08 fold
fold-change in binding vs wild-type IgG1 [18]: 1.07
fold-change in binding vs wild-type IgG1 [19]: 7.76
fold-change in binding vs wild-type IgG1 [20]: 0.36
fold-change in binding vs wild-type IgG1 [21]: 10.7

IgG1 antibody with Fc variant G236A_Y300L
fold-change vs FY1 rIgG1m3 [8]: 0.98 fold
fold-change vs FY1 rIgG1m3 [9]: 1.1 fold
fold-change vs FY1 rIgG1m3 [11]: 4.6 fold
fold-change vs FY1 rIgG1m3 [12]: 18.2 fold
fold-change vs FY1 rIgG1m3 [13]: 0.9 fold
fold-change vs FY1 rIgG1m3 [14]: 0.97 fold
fold-change vs FY1 rIgG1m3 [15]: 1 fold

IgG1 antibody with Fc variant G236S_R292P_Y300L
fold-change vs wt [22]: 1.96 fold
FcγR reporter signaling, fold-change vs wt [cont'd] [3]: 0.93 fold
FcγR reporter signaling, fold-change vs wt [cont'd] [4]: 2.24 fold
FcγR reporter signaling, fold-change vs wt [cont'd] [5]: 1.32 fold
FcγR reporter signaling, fold-change vs wt [cont'd] [6]: 1.52 fold
fold-change to WT Fc [9]: 0.817 fold
fold-change vs wt [9]: 0.82 fold
fold-change to WT Fc [11]: 1.34 fold
fold-change vs wt [11]: 1.34 fold
fold-change to WT Fc [12]: 10.9 fold
fold-change vs wt [12]: 10.8 fold
fold-change to WT Fc [13]: 0.753 fold
fold-change vs wt [13]: 0.75 fold
fold-change vs wt [14]: 1.04 fold
fold-change vs wt [15]: 1.06 fold
fold-change to WT Fc [16]: 1.98 fold
fold-change vs wt [16]: 1.98 fold
fold-change vs wt [17]: 0.87 fold
fold-change to WT Fc [23]: 1.06 fold
fold-change to WT Fc [24]: 0.87 fold

IgG1 antibody with Fc variant R292P_Y300L
fold-change vs wt [22]: 2.07 fold
fold-change to WT Fc [9]: 0.9 fold
fold-change to WT Fc [11]: 0.682 fold
fold-change to WT Fc [12]: 1.4 fold
fold-change to WT Fc [16]: 2.09 fold
fold-change vs wt [16]: 2.09 fold
fold-change vs wt [25]: 0.9 fold
fold-change vs wt [17]: 0.88 fold
fold-change vs wt [26]: 0.68 fold
fold-change vs wt [27]: 1.4 fold
fold-change to WT Fc [28]: 4.85 fold
fold-change vs wt [28]: 4.85 fold
fold-change vs wt [29]: 1.72 fold
fold-change to WT Fc [23]: 5.29 fold
fold-change vs wt [23]: 5.29 fold
fold-change to WT Fc [24]: 0.879 fold
FcγR reporter signaling, fold-change vs wt [cont'd] [30]: 0.72 fold
FcγR reporter signaling, fold-change vs wt [cont'd] [31]: 0.98 fold
FcγR reporter signaling, fold-change vs wt [cont'd] [32]: 3.66 fold
FcγR reporter signaling, fold-change vs wt [cont'd] [33]: 7.42 fold

IgG1 antibody with Fc variant S239D_H268E_G236A
fold-change vs wt [16]: 0.4 fold
fold-change vs wt [25]: 5.09 fold
fold-change vs wt [17]: 0.91 fold
fold-change vs wt [26]: 53.5 fold
fold-change vs wt [27]: 11.7 fold
fold-change vs wt [28]: 7.9 fold
fold-change vs wt [29]: 3.04 fold
fold-change vs wt [23]: 16.3 fold
FcγR reporter signaling, fold-change vs wt [cont'd] [30]: 1.8 fold
FcγR reporter signaling, fold-change vs wt [cont'd] [31]: 2.15 fold
FcγR reporter signaling, fold-change vs wt [cont'd] [32]: 5.22 fold
FcγR reporter signaling, fold-change vs wt [cont'd] [33]: 12.8 fold

L309T_P238D_P396L_T366A (antibody)
FcγR reporter signaling, fold-change vs wt [cont'd] [30]: 0.91 fold
FcγR reporter signaling, fold-change vs wt [cont'd] [31]: 0.04 fold
FcγR reporter signaling, fold-change vs wt [cont'd] [33]: 0.05 fold

L309T_P238D_P396L_T366A-afuc (antibody)
FcγR reporter signaling, fold to wt-fucose [cont'd] [34]: 0.16 fold
